Test results taken from the supplement of paper PMC9112550, “Optimization of the antimicrobial peptide Bac7 by deep mutational scanning” (BMC Biology, 2022).

system: Escherichia coli TOP10; test: shrunken log2 fold change of peptide-encoding DNA abundance (4.5 h post-induction vs induction); higher = less antimicrobial activity (less host growth inhibition); conditions: time post-induction: 4.5 h; library: site-saturation at positions 5, 18, 19, 20
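Note: peptides expressed intracellularly from a pBAD plasmid library in pooled LB shake-flask culture, induced with 0.3% L-arabinose, DNA abundance read by NGS, three biological replicates, DESeq2 with apeglm shrinkage.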

Sequence	shrunken log2 fold change
RRIRSRPPRLPRPRPRPEDVPRP	0.183
RRIRYRPPRLPRPRPRPRMGPRP	-0.0782
RRIRYRPPRLPRPRPRPENVPRP	-0.00208
RRIRFRPPRLPRPRPRPWQLPRP	-0.234
RRIRSRPPRLPRPRPRPCKVPRP	-0.265
RRIRCRPPRLPRPRPRPMLLPRP	0.00507
RRIRIRPPRLPRPRPRPFSWPRP	0.0705
RRIRFRPPRLPRPRPRPYMRPRP	0.00487
RRIRYRPPRLPRPRPRPRFRPRP	-0.213
RRIRTRPPRLPRPRPRPGMCPRP	-0.139
RRIRVRPPRLPRPRPRPDECPRP	-0.00624
RRIRTRPPRLPRPRPRPYVLPRP	-0.321
RRIRQRPPRLPRPRPRPIWPPRP	-0.0155
RRIRTRPPRLPRPRPRPTDLPRP	-0.0718
RRIRGRPPRLPRPRPRPRYDPRP	-0.057
RRIRVRPPRLPRPRPRPTMCPRP	0.15
RRIRWRPPRLPRPRPRPGGLPRP	0.403
RRIRKRPPRLPRPRPRPRWDPRP	0.118
RRIRVRPPRLPRPRPRPCQTPRP	-0.03
RRIRIRPPRLPRPRPRPPFNPRP	-0.473
RRIRPRPPRLPRPRPRPRQHPRP	0.182
RRIRNRPPRLPRPRPRPQGGPRP	-0.28
RRIRTRPPRLPRPRPRPFLKPRP	0.092
RRIRKRPPRLPRPRPRPDNNPRP	0.0165
RRIRCRPPRLPRPRPRPETSPRP	0.0533

Sequence	shrunken log2 fold change
RRIRNRPPRLPRPRPRPLRQPRP	0.154
RRIRQRPPRLPRPRPRPNECPRP	0.033
RRIRERPPRLPRPRPRPCYPPRP	-0.498
RRIRHRPPRLPRPRPRPESIPRP	-0.107
RRIRLRPPRLPRPRPRPHVWPRP	0.198
RRIRIRPPRLPRPRPRPLNQPRP	-0.195
RRIRIRPPRLPRPRPRPFDKPRP	-0.177
RRIRDRPPRLPRPRPRPTTTPRP	0.654
RRIRRRPPRLPRPRPRPHSNPRP	-0.281
RRIRCRPPRLPRPRPRPTINPRP	-0.783
RRIRTRPPRLPRPRPRPTICPRP	-0.401
RRIRDRPPRLPRPRPRPGDGPRP	0.85
RRIRDRPPRLPRPRPRPRRFPRP	0.212
RRIRNRPPRLPRPRPRPEINPRP	0.0636
RRIRDRPPRLPRPRPRPPLWPRP	0.228
RRIRCRPPRLPRPRPRPPKGPRP	0.405
RRIRYRPPRLPRPRPRPYKKPRP	-0.00195
RRIRIRPPRLPRPRPRPRKNPRP	-0.133
RRIRMRPPRLPRPRPRPDMCPRP	1.86
RRIRARPPRLPRPRPRPPEMPRP	0.515
RRIRLRPPRLPRPRPRPCTQPRP	-0.174
RRIRVRPPRLPRPRPRPLSVPRP	-0.0714
RRIRMRPPRLPRPRPRPDMYPRP	-0.138
RRIRLRPPRLPRPRPRPYHRPRP	0.0373
RRIRERPPRLPRPRPRPAMGPRP	-0.0135

Sequence	shrunken log2 fold change
RRIRWRPPRLPRPRPRPSQGPRP	0.27
RRIRTRPPRLPRPRPRPISKPRP	-0.17
RRIRLRPPRLPRPRPRPRLQPRP	0.15
RRIRTRPPRLPRPRPRPLNDPRP	-0.192
RRIRSRPPRLPRPRPRPQIKPRP	0.0447
RRIRLRPPRLPRPRPRPVSIPRP	-0.321
RRIRTRPPRLPRPRPRPNNFPRP	-0.381
RRIRWRPPRLPRPRPRPNHYPRP	-0.605
RRIRERPPRLPRPRPRPLTVPRP	-0.0383
RRIRTRPPRLPRPRPRPLKMPRP	-0.0458
RRIRGRPPRLPRPRPRPVTWPRP	0.425
RRIRKRPPRLPRPRPRPQAHPRP	0.266
RRIRGRPPRLPRPRPRPVAYPRP	0.0402
RRIRSRPPRLPRPRPRPPCLPRP	-0.105
RRIRVRPPRLPRPRPRPMNEPRP	-0.111
RRIRYRPPRLPRPRPRPHQYPRP	-0.402
RRIRLRPPRLPRPRPRPHPLPRP	-0.152
RRIRMRPPRLPRPRPRPVDEPRP	-0.00101
RRIRRRPPRLPRPRPRPMWGPRP	0.0327
RRIRFRPPRLPRPRPRPSTLPRP	-0.757
RRIRYRPPRLPRPRPRPIRAPRP	0.0501
RRIRIRPPRLPRPRPRPKQMPRP	-0.166
RRIRMRPPRLPRPRPRPQYWPRP	-0.194
RRIRERPPRLPRPRPRPNGMPRP	-0.0154
RRIRFRPPRLPRPRPRPAPCPRP	0.294

Sequence	shrunken log2 fold change
RRIRTRPPRLPRPRPRPMIWPRP	-0.0322
RRIRVRPPRLPRPRPRPTSWPRP	0.383
RRIRTRPPRLPRPRPRPKAVPRP	0.26
RRIRDRPPRLPRPRPRPKQWPRP	0.109
RRIRERPPRLPRPRPRPITDPRP	-0.00102
RRIRCRPPRLPRPRPRPFIYPRP	-0.808
RRIRDRPPRLPRPRPRPHMTPRP	-0.0927
RRIRQRPPRLPRPRPRPIMTPRP	-0.107
RRIRFRPPRLPRPRPRPFPDPRP	-0.137
RRIRGRPPRLPRPRPRPGFHPRP	0.296
RRIRARPPRLPRPRPRPCAIPRP	-0.00341
RRIRFRPPRLPRPRPRPAKYPRP	-0.381
RRIRDRPPRLPRPRPRPRYYPRP	-0.175
RRIRLRPPRLPRPRPRPQLEPRP	-0.0629
RRIRYRPPRLPRPRPRPEKIPRP	0.0147
RRIRNRPPRLPRPRPRPFNWPRP	-0.123
RRIRNRPPRLPRPRPRPWWYPRP	-0.361
RRIRNRPPRLPRPRPRPDGWPRP	0.235
RRIRGRPPRLPRPRPRPSYFPRP	-0.0109
RRIRIRPPRLPRPRPRPVLIPRP	-0.469
RRIRPRPPRLPRPRPRPAVNPRP	-0.103
RRIRERPPRLPRPRPRPRSHPRP	-0.349
RRIRKRPPRLPRPRPRPDLPPRP	0.222
RRIRERPPRLPRPRPRPMDSPRP	-0.0933
RRIRQRPPRLPRPRPRPIWGPRP	-0.105

Sequence	shrunken log2 fold change
RRIRGRPPRLPRPRPRPQFNPRP	-0.163
RRIRNRPPRLPRPRPRPQLYPRP	-0.206
RRIRARPPRLPRPRPRPHNTPRP	-0.235
RRIRLRPPRLPRPRPRPRHQPRP	-0.254
RRIRQRPPRLPRPRPRPTNVPRP	-0.302
RRIRARPPRLPRPRPRPPFEPRP	0.504
RRIRCRPPRLPRPRPRPNTLPRP	-0.535
RRIRARPPRLPRPRPRPLWTPRP	0.115
RRIRIRPPRLPRPRPRPSVYPRP	-0.277
RRIRQRPPRLPRPRPRPPASPRP	0.191
RRIRHRPPRLPRPRPRPIIWPRP	-0.145
RRIRHRPPRLPRPRPRPQYVPRP	-0.213
RRIRRRPPRLPRPRPRPNRLPRP	0.523
RRIRHRPPRLPRPRPRPTRLPRP	0.189
RRIRTRPPRLPRPRPRPSQWPRP	-0.168
RRIRGRPPRLPRPRPRPTPGPRP	0.971
RRIRQRPPRLPRPRPRPPCEPRP	-0.00701
RRIRVRPPRLPRPRPRPIIYPRP	-0.475
RRIRARPPRLPRPRPRPLTWPRP	0.272
RRIRDRPPRLPRPRPRPMPIPRP	0.000679
RRIRRRPPRLPRPRPRPCVSPRP	0.0908
RRIRGRPPRLPRPRPRPVGCPRP	0.74
RRIRVRPPRLPRPRPRPPMRPRP	1.24
RRIRYRPPRLPRPRPRPGMNPRP	-0.227
RRIRIRPPRLPRPRPRPWDPPRP	-0.0252

Sequence	shrunken log2 fold change
RRIRMRPPRLPRPRPRPSRTPRP	0.715
RRIRMRPPRLPRPRPRPSGFPRP	0.411
RRIRKRPPRLPRPRPRPYVKPRP	-0.312
RRIRVRPPRLPRPRPRPQGEPRP	-0.227
RRIRQRPPRLPRPRPRPKEVPRP	0.382
RRIRIRPPRLPRPRPRPEPYPRP	0.0464
RRIRLRPPRLPRPRPRPDYHPRP	-0.576
RRIRQRPPRLPRPRPRPVREPRP	-0.00762
RRIRERPPRLPRPRPRPMAYPRP	-0.0427
RRIRFRPPRLPRPRPRPKMQPRP	-0.0373
RRIRNRPPRLPRPRPRPMLHPRP	-0.263
RRIRYRPPRLPRPRPRPIISPRP	-0.18
RRIRHRPPRLPRPRPRPWSWPRP	-0.304
RRIRMRPPRLPRPRPRPQLKPRP	1.42
RRIRVRPPRLPRPRPRPSANPRP	0.122
RRIRHRPPRLPRPRPRPRRPPRP	0.385
RRIRLRPPRLPRPRPRPKLPPRP	0.492
RRIRDRPPRLPRPRPRPSCPPRP	0.00741
RRIRSRPPRLPRPRPRPPTSPRP	0.0457
RRIRIRPPRLPRPRPRPYAHPRP	-0.184
RRIRCRPPRLPRPRPRPIPRPRP	0.73
RRIRARPPRLPRPRPRPINGPRP	-0.00875
RRIRCRPPRLPRPRPRPGEAPRP	0.449
RRIRHRPPRLPRPRPRPYRVPRP	-0.0718
RRIRFRPPRLPRPRPRPNYSPRP	-0.8
